The assay has as its target biotinylated Aβ oligomers (from bAβ1–42) (UniProt P05067 672-713). Nature of the assay: ELISA. Conditions: both partners purified. For orientation: An ELISA detects its analyte on a solid surface through an enzyme-linked reagent.

Experimental findings from PMC4505445 (The Journal of Biological Chemistry, 2015) are described below.

B1: wild-type human prion protein (amino acids 23–231), unlabeled (domain or fragment)
chain: not shown
Turning to B1, the binding result is reported as “binds”.
